The data set deals with the molecule itself. In words: crystal structure; X-ray, 4.5 Å; sitting-drop vapour diffusion at 20 °C; 12.5 µM ATP in the final buffer, no nucleotide density; four protomers in the asymmetric unit, two nearly identical C3 hexamers identified from the crystal packing.

Consider one protein from article PMC12607626, “Separation of Pseudomonas aeruginosa type IV pilus-dependent twitching motility and surface-sensing responses” (mBio, 2025).

Broadly, the stoichiometry N is a count of units in the complex or per binding partner.

B1: PilU (Pseudomonas aeruginosa type IVa pilus retraction ATPase paralog of PilT) (enzyme)
chain: MEFEKLLRLMVEKGGSDLFITAGVPPSMKVNGRVMPVTKTPLSPEQTRETVLGVMNEQQRRDFAENHECNFAISARGIGRFRVSAFYQRNLVGMVLRRIETNIPTLEELKLPEILKKLALTKRGLVIFVGATGTGKSTSLAAMIGYRNKNSTGHIISIEDPIEYIHQHQGCIVTQREVGLDTDSFEVALKNTLRQAPDVIMIGEVRSRETMDHAVAFAETGHLCLATLHANNANQALERIIHFFPADRHGQVWMDLSLNLKAIVAQQLVPTPDGKGRRAVIEVLLNTPLAADLIRKGEVHELKPLMKRSTEQGMQTFDQALYQLYTQGEITYEDALAHADSANDLRLMIKLGSESDADHLSSLTQGLSLEITDDDPAGRRFR
notes: PilU, P. aeruginosa; the pilU gene was amplified by PCR and cloned into pET28a; the 30 C-terminal residues were not resolved in the crystal; also called PilU hexamer; source: E. coli BL21 (DE3), pET28a, purified (HiTrap Chelating HP, size-exclusion chromatography)
Turning to B1, the “stoichiometry N” value stood at 6.
